Experimental findings from article PMC4523205 are described below.

For test [1], the target named is gp41_(596-606) peptide with Cys604 substituted by Ala, N-terminal biotin (HIV-1) (UniProt P04578). The test is described as follows: SPR; BIAcore 4000; biotinylated 11mer and its alanine-substituted variants on a streptavidin chip; 7B2 (Fab by the legend) at 20 μg/ml; responses of the irrelevant antibody Synagis subtracted. A general note: SPR reads the build-up and loss of mass on a sensor chip optically.

The target of test [2] is rhesus macaque FcγR3A-1 (rhesus macaque) (UniProt A3RFZ7). Kind of test: SPR.
The target of test [3] is Env of HIV-1 BaL.B, on virions (HIV-1).
In test [4] the target is Env of HIV-1 SF162.B, on virions (HIV-1) (UniProt P19550).
Test [5] addresses rhesus macaque FcγR3A-3 (rhesus macaque) (UniProt A3RFZ7). The test is described as follows: SPR; mAb binding to recombinant purified Fc receptors; who was immobilised is not stated.
In test [6] the target is rhesus macaque FcγR3A-1 (rhesus macaque) (UniProt A3RFZ7). The test is described as above.
For test [7], the target named is human FcγRIIIa/CD16 (human) (UniProt O75015). The description is as above.
The target of test [8] is human FcγRI (CD64) (human) (UniProt P12314). The description is as above.
Test [9] has as its target Env of SHIV-BaL, on virions (HIV-1 (env of SHIV-BaL)).
Another test concerns the target 7B2 Fab. The test is described as follows: SPR. To be noted: for response: sensorgram read at ~140 seconds after starting injection of 7B2 Fab, parent: est. 1400, read off a plot.
Setting [10] is: binding response at saturation (~140 seconds after starting injection of 7B2 Fab).

The term Kd denotes the concentration at which binding is half-saturated. The koff is the first-order rate constant of dissociation. Broadly, the kon is the rate constant with which the complex forms.

Like-named read-outs stand apart in the source and are kept apart here.

Sequence of rhesus macaque FcγR3A-3 (rhesus macaque) (A3RFZ7 21-206): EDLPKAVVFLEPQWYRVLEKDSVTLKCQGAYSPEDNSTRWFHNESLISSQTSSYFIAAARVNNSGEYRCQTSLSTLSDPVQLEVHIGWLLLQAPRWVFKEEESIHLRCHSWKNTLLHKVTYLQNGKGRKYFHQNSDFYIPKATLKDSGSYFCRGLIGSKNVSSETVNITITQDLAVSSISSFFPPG
Sequence of rhesus macaque FcγR3A-1 (rhesus macaque) (A3RFZ7 21-206): as above
Sequence of human FcγRI (CD64) (human) (P12314 16-292): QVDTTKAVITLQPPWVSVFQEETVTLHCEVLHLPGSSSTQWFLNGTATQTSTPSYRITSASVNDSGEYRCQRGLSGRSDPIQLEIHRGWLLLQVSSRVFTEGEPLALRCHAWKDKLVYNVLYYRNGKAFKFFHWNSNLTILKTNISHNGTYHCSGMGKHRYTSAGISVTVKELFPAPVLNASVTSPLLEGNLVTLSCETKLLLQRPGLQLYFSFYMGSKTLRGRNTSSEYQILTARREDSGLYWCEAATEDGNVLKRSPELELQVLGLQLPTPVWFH

In test [1], 7B2 Fab showed an off-rate relative to the wild-type peptide (fold) of 2.8 fold.

Take 7B2 IgG1_AAA: the Kd in [2] is 92.9 nM.

Substance 7B2 IgG1_AAA (antibody) registered a neutralisation of HIV-1 BaL in peripheral blood monocytes differentiated into macrophages, ID50 in [3] of 0.05 µg/mL. In test [4], this substance had a neutralisation of HIV-1 SF162 in macrophages, IC90 of 0.2 not printed. Also, the Kd in test [5] is 147 nM; in test [6] it was 68.7 nM; in [7] it was 1100 nM; in test [8], 49 nM. Further, in test [9], the neutralisation of SHIV-BaL in the TZM-bl assay, IC50 was over 50 µg/mL.

With A32 IgG1_AAA, the Kd in test [2] was found to be 46.2 nM.

As for A32 IgG1_AAA (antibody), in test [5], the Kd is 56 nM, the off-rate constant (koff) came to 0.0061 s⁻¹ and the on-rate (kon) came to 110000 M⁻¹ s⁻¹. In test [6], the Kd came to 50 nM, the dissociation rate constant (koff) was 0.0094 s⁻¹ and the kon was found to be 190000 M⁻¹ s⁻¹.

Consider “gp41_(596-606) peptide, wild type, N-terminal biotin C598A”, for which, in the test with 7B2 Fab, the ratio to parent was found to be 25 and the response was found to be 200 RU. The ratio to parent with 7B2 Fab (setting [10]) stood at 0.16.

Regarding “gp41_(596-606) peptide, wild type, N-terminal biotin G597A”, the ratio to parent with 7B2 Fab worked out at 5.15; in the test with 7B2 Fab (setting [10]) it was 0.6.

As to “gp41_(596-606) peptide, wild type, N-terminal biotin G600A”, the ratio to parent with 7B2 Fab and in the test with 7B2 Fab (setting [10]) was 0 throughout.

On to “gp41_(596-606) peptide, wild type, N-terminal biotin I603A”, for which, in the test with 7B2 Fab, the ratio to parent amounted to 31.7 and the response was found to be 430 RU. In addition, the ratio to parent with 7B2 Fab (setting [10]) came out at 0.32.

As for “gp41_(596-606) peptide, wild type, N-terminal biotin K601A”, the ratio to parent worked out at 0.59 in the test with 7B2 Fab and 1.24 in the test with 7B2 Fab (setting [10]).

“gp41_(596-606) peptide, wild type, N-terminal biotin L602A”: the results for the ratio to parent with 7B2 Fab and in the test with 7B2 Fab (setting [10]) were 4.65 and 0.38, respectively.

As to “gp41_(596-606) peptide, wild type, N-terminal biotin S599A”, in the test with 7B2 Fab, the ratio to parent turned out to be 21.4 and the response is 880 RU. In addition, the ratio to parent with 7B2 Fab (setting [10]) was 0.64.

Take “gp41_(596-606) peptide, wild type, N-terminal biotin T605A”: the values for the ratio to parent with 7B2 Fab and with 7B2 Fab (setting [10]) were 0.79 and 0.99, respectively.

In the case of “gp41_(596-606) peptide, wild type, N-terminal biotin T606A”, the ratio to parent with 7B2 Fab was determined as 1.11; with 7B2 Fab (setting [10]) it was 0.89.

“gp41_(596-606) peptide, wild type, N-terminal biotin W596A”: the ratio to parent with 7B2 Fab came out at 8.65; in the test with 7B2 Fab (setting [10]), 0.83.
